Key:
[1] = target: T1, human LIGHT (TNFSF14), full length, membrane-bound (214E allele) (human, UniProt O43557 1-240); assay: flow cytometry, mAb binding to EL4 cells stably expressing human LIGHT [upper panel]
T1 construct: also called membrane LIGHT; human membrane LIGHT

[2] = target: T1, human LIGHT (TNFSF14), full length, …; assay: KD calculated from EC50 on EL4-LIGHT cells, flow cytometry
[3] = target: T2, recombinant human soluble LIGHT, amino acids 74-240 (R&D Systems 664-LI-025) (human, UniProt O43557 74-240); assay: native mass spectrometry, LIGHT:antibody 1:5
T2 construct: range 74-240; also called 74-240 LIGHT; Soluble LIGHT 74-240
T2 chain: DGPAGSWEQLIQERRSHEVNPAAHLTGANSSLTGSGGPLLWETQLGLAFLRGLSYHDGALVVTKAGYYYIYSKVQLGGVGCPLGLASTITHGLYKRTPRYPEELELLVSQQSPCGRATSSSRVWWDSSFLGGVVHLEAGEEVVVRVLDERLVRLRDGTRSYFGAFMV
Protocol: The LIGHT protein (R&D Systems 664-LI-025) was solubilised in PBS buffer at a final concentration of 4 μM, whereas the mAbs were maintained at 20 μM in PBS. The samples were buffer exchanged into ammonium acetate pH 7.4 at different concentrations via a column with a cut-off of 40 kDa prior to mass spectrometry optimisation. […] Samples were stored at 4° C. and were used within one week. The antibodies were diluted to 1 μM prior to MSanalysis. For complex formation the LIGHT protein was incubated with each antibody separately in 1:5 ratio on ice and native mass measurements were performed 30 min after incubation.
Native mass spectroscopy was utilised to determine the ratio of mAb bound to native trimeric LIGHT. The measured mass of 3B04 (IgG4) was 147256±0.7 Da and the F19 anti-LIGHT mAb, (IgG4 mAb from EP2292663) was 147364±6.6 Da. Unlike the monoclonal antibodies the LIGHT protein was highly heterogeneous as expected, due to post-translational glycosylation. Two major populations of the light protein were recorded with measured masses of 68 kDa and 71 kDa. Both of these proteoforms are higher in mass than the theoretical trimeric mass of the protein, 62827.38 Da. […] In the case of LIGHT binding with 3B04, the stoichiometry can be assigned to one antibody per one LIGHT protein (masses of 219630±221 Da and 216960±380 were recorded).

B1: 3B04 (antibody, human IgG4, V domains shown)
VH: QVQLQQPGAELVRPGASVTLSCKASGYTFTDYEMHWVKQTPVHGLEWIGEIDPETGDTAYSQKFKGKATLTADKSSSTAYMEFRSLTSEDSAVYYCSRETDYFFDYWGQGTTLTVSS
VL: DIQMTQTPASLSASVGETVTITCGASENIYGALNWYQRKQGKSPQLLIYGATNLADGMSSRFSGSGSGRQYSLKISSLHPDDFATYYCQNVLTTPWTFGGGTKLEIKR
notes: chimeric: mouse variable domains on human IgG4 HC (S-to-P and L-to-E at 248) and human CL; also called Parental 3B04; 3B04 chimeric
- EC50 (read off the curve) [1]: ~100 pM
- Kd [2]: 150 pM
- stoichiometry, antibodies per LIGHT trimer [3]: 1 antibodies per LIGHT trimer

B2: 3D12 (antibody, human IgG4, V domains shown)
VH: QVQLQQPGAELVRPGASVTLSCKASDYTFTDSEIHWVKQTPVHGLEWIGEIDPETGGTAYNQKFKGKATLTADKSSSTAYMELRSLTSEDSAVYYCSRETDYFFDYWGQGTTLTVSS
VL: DIQMTQSPASLSASVGETVTITCGASENIYGALNWYQRKQGKSPQLLIYGATNLADGMSSRFSGSGSGRQYSLKISSLHPDDVATYYCQNVLSTPWTFGGGTKLEIKR
notes: chimeric: mouse variable domains on human IgG4 HC (S-to-P and L-to-E at 248) and human CL; also called Parental 3D12; 3D12 chimeric
- Kd [2]: 200 pM

Reference: patent US20230035798A1 (CAPELLA BIOSCIENCE, published 2023)
